The Kd is the constant that tells how readily two partners part at equilibrium. One may read the koff as the rate constant with which the complex falls apart. The term kon denotes the rate constant with which the complex forms. A word on the IC50: it is the concentration that gives 50% inhibition. Read a low IC50 as higher potency.

This is an account of results in US20260167714A1 (COHERUS BIOSCIENCES, published 2026).

The target of assay [1] is T1, recombinant human ILT4 (LILRB2) (human, UniProt Q8N423 22-460).
T1 construct: Bought protein (Acro Biosystems or R&D Systems); also called ILTR4
Nature of the assay: SPR, Biacore T200, medium resolution; koff held at its limit of 4.27e-5 s^-1. As to the method: (§1) Label-free SPR analysis on a Biacore T200 instrument was utilized to measure antibody affinity to ILT4. CM4 sensor chips from Cytiva Inc. were utilized for all medium resolution analyses. Either anti-mouse Fc specific or anti-human Fc specific capture surfaces were prepared using standard amine coupling chemistry. Mouse, Chimera or Humanized mAbs were captured to their respective surfaces and ILT4 was injected across the surfaces from 101 nM to 0.79 nM in a 2-fold serial dilution series at a flow rate of 100 μL/min. The association phase was followed for 90 sec. while the dissociation phase was followed for 1200 sec. due to the medium resolution analysis implemented here. The sensorgrams were double-referenced and fit globally to a 1:1 interaction model with a term included for mass transport, and the equilibrium dissociation constant was calculated as KD=koff/kₒₙ. […] All kinetic experiments were performed at 25° C. in a buffer consisting of Hepes-buffered saline, pH 7.4, with 0.05% polysorbate 20 (HBS-P+) and 100 μg/ml Bovine Serum Albumin (BSA).
(In general: In SPR one partner is held on a chip, and binding of the other changes the refractive index at the surface.)

For assay [2], the target named is T1, recombinant human ILT4 (LILRB2). Nature of the assay: SPR, Biacore T200, mAb captured on anti-Fc, ILT4 injected, medium resolution, 25 C. The method, then:
as §1

Assay [3] addresses T2, human ILT4 expressed on cells (human, UniProt Q8N423 22-597).
T2 construct: whole, on cells; also called CHO-S/ILT4 cells; ILT4-CHO cells
Description: flow cytometry, blockade of PE-HLA-G tetramer (5 µg/ml) binding to CHO-S/ILT4 cells, experiment 2. The method, then: (§2) In the second blocking experiment, the primary antibody dilutions were made by diluting antibody to 15 μg/ml in FACS buffer. Three independent sets of eleven 2.5-fold serial dilutions were then made in FACS buffer from 15 μg/ml to 0.002 μg/ml. Each dilution set was handled independently, and 50 μl from each was added to cells in duplicate. Control wells received FACS buffer with no antibody. Wells were mixed and incubated for 30 minutes at 4 degrees C. Cells were washed twice in FACS buffer.
(§3) In both blocking experiments, phycoerythrin (PE)-conjugated HLA-G tetramer was diluted in FACS buffer to 5 μg/ml and 100 μl per well was added to cells. Cells were incubated at 4 degrees C. for 30 minutes, washed twice in FACS buffer, and resuspended in 250 μl FACS buffer with 0.1 μg/ml propidium iodide.
(§4) Cells were acquired on an Attune flow cytometer, with 5000 propidium iodide-negative cells collected per sample, and MFI was recorded. Relative blocking activity was calculated with the following formula: 100−(Sample MFI−Background MFI)/(Top MFI−Background MFI)*100. Prism software (Graphpad) was used to plot MFI and relative blocking activity for each sample. The blocking potency for each antibody, represented as IC₅₀, was calculated with Prism software.

The target of assay [4] is T2, human ILT4 expressed on cells. Nature of the assay: cell-based or functional assay.
Assay [5] shares this target. Description: flow cytometry blocking assay: ILT4-expressing CHO cells preincubated with antibody, then PE-HLA-G; HLA-G binding MFI falls from about 105000 (no antibody) to near 0. As to the method:
as §2, §3, §4
For orientation: Flow cytometry measures light scatter and fluorescence of single cells or particles in a stream.

T1 sequence (Q8N423 other isoform, or with tags, fused parts or gaps limits assumed): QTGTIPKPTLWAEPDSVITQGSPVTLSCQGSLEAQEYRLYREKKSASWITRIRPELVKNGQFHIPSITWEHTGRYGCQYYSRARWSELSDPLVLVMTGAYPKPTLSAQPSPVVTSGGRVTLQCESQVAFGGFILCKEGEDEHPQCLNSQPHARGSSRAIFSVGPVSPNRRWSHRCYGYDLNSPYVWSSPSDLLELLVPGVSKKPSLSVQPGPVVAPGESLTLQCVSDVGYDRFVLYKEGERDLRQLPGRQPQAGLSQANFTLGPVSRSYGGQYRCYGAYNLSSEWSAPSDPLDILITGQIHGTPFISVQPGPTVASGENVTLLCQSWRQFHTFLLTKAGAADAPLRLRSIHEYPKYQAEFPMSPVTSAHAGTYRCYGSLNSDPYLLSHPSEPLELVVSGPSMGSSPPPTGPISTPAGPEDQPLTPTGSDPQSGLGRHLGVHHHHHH
T2 sequence (Q8N423 22-597): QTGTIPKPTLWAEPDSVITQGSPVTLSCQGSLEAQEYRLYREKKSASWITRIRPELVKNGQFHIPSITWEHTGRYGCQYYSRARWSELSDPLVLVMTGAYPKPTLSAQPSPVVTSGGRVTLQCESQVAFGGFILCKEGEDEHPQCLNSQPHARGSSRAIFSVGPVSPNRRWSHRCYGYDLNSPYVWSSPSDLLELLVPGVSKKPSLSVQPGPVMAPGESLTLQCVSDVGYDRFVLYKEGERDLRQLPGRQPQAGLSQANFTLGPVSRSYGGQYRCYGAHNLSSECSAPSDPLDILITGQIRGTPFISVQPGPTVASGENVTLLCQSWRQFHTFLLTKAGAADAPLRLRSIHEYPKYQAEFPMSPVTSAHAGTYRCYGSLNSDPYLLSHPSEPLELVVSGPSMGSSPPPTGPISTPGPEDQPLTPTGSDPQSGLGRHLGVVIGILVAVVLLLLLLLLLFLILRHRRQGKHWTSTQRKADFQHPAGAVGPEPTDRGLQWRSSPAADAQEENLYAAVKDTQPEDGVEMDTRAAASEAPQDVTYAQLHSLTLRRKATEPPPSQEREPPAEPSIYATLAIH

B1: Chimeric 156 (antibody, V domains shown)
VH: QVQLKQSGAELVRPGASVKLSCRASGYTFTDYYMNWVKQRPGQGLEWIARIYPGVYRTHYNEKFKDKATLTAEKSSSTAYMELSSLTSEDSAVYFCARSGYYGGTYEEDAMDYWGQGTSVTVSS
VL: DIQMTQSPASLSVSVGETVTITCRASENIYSNLAWYQQKQGKSPQLLVYAATSLADGVPSRFRGSGSGTQYSLKISSLQSEDFGNYYCQNFWDTPYTFGGGTKLEIK
notes: Chimeric form of L156S3
Turning to B1, in assay [1], the Kd is at most 0.114 nM and the koff is at most 4.27e-05 s⁻¹. The association rate constant (kon) in assay [2] is 373000 M⁻¹ s⁻¹.

B2: Chimeric 45 (antibody, V domains shown)
VH: EVQLQQSGPELVKPGASVKISCKASGYTFTDYYMNWVKQSHGKSLEWIGDINPNNGGTSYNQKFKGKATLTVDKSSSTAYMELRSLTSEDSAVYYCARGGAELTGTYWYFDVWGTGTTVTVSS
VL: DIQMTQSPASLSISVGETVTITCRASENIYSNLAWYQQKQGKSPQVLVYGATNLADGVPSRFSGSGSGTQYSLKIKSLQSEDFGSYYCQHFWDSPFTFGSGTKLEIK
notes: Chimeric form of L45S4, captured on anti-human Fc
Turning to B2, in assay [2], the dissociation constant (Kd) was 0.223 nM, the off-rate (koff) is 0.000109 s⁻¹ and the kon was 489000 M⁻¹ s⁻¹.

B3: L77S2 (antibody, IgG1, V domains shown)
VH: DVQLQQSGPELVKPGNSVKISCKAAGYSFTGYSVNWVKERHGKSLEWIGRINPYNGDIFNNQKFKGKATLTVDKSSSTAHMELRSLTSEDSAVYYCARGTTVGGAWFAYWGQGTLVTVSA
VL: VIVLTQSPASLAVSLGQRAAISCRASESVDSYGYSFLHWYQQKPGQPPKLLIYLASNLESGIPARFSGSGSGTDFTLTINPVEADDVATYYCQQSNEDLMYTFGGGTKLEIK
notes: also called Murine 77; mouse anti-human ILT4 antibody L77S2
Consider B3, for which, in assay [1], the dissociation constant Kd was at most 0.111 nM. Also, in assay [1], the off-rate constant (koff) was at most 4.27e-05 s⁻¹. Besides, the IC50 in assay [3] turned out to be 0.103 µg/mL; in assay [5], 0.076 µg/mL. Also, in assay [2], the kon was 387000 M⁻¹ s⁻¹. In addition, the “IL-6 secretion by LPS-stimulated M2 macrophages (MSD), fold over control” value in assay [4] was 2 fold.

B4: Chimeric 77 (antibody, V domains shown)
VH: DVQLQQSGPELVKPGNSVKISCKAAGYSFTGYSVNWVKERHGKSLEWIGRINPYNGDIFNNQKFKGKATLTVDKSSSTAHMELRSLTSEDSAVYYCARGTTVGGAWFAYWGQGTLVTVSA
VL: VIVLTQSPASLAVSLGQRAAISCRASESVDSYGYSFLHWYQQKPGQPPKLLIYLASNLESGIPARFSGSGSGTDFTLTINPVEADDVATYYCQQSNEDLMYTFGGGTKLEIK
notes: Chimeric form of L77S2
Take B4: in assay [1], the Kd is at most 0.059 nM and the koff is at most 4.27e-05 s⁻¹. In addition, in assay [2], the kon is 728000 M⁻¹ s⁻¹.

B5: L180S4 (antibody, IgG1, V domains shown)
VH: EVHLQQSGPELVKPGASVKISCKASGYSFIGYFMNWMKQSHGKSLEWIGRINPYNGDIFYNQKFKGKATLTVDKSSTTAHMDLLSLTSEDFAVYYCARGITVAAGSFDVWGTGTTVTVSS
VL: DIVLTQSPASLAVSLGQRATISCRASESVDNYGNTFMHWYQQKPGQPPKLLIYRASNLESGIPARFSGSGSKTDFTLTINPVEADDVATYYCQQSSDHPLTFGAGTKLELS
notes: also called Murine 180; mouse anti-human ILT4 antibody L180S4
As for B5, the Kd in assay [1] was at most 0.099 nM. For the same molecule, in assay [1], the koff is at most 4.27e-05 s⁻¹. For the same molecule, the half-inhibitory concentration (IC50) in assay [3] was determined as 0.095 µg/mL; in assay [5] it was 0.064 µg/mL. Besides, the kon in assay [2] came to 431000 M⁻¹ s⁻¹. In addition, in assay [4], the “IL-6 secretion by LPS-stimulated M2 macrophages (MSD), fold over control” value stood at 2 fold.

B6: Chimeric 180 (antibody, V domains shown)
VH: EVHLQQSGPELVKPGASVKISCKASGYSFIGYFMNWMKQSHGKSLEWIGRINPYNGDIFYNQKFKGKATLTVDKSSTTAHMDLLSLTSEDFAVYYCARGITVAAGSFDVWGTGTTVTVSS
VL: DIVLTQSPASLAVSLGQRATISCRASESVDNYGNTFMHWYQQKPGQPPKLLIYRASNLESGIPARFSGSGSKTDFTLTINPVEADDVATYYCQQSSDHPLTFGAGTKLELS
notes: Chimeric form of L180S4
B6: in assay [1], the equilibrium dissociation constant (Kd) was at most 0.049 nM and the koff was at most 4.27e-05 s⁻¹. In addition, in assay [2], the on-rate (kon) was 874000 M⁻¹ s⁻¹.
